Measurements reported in the supplement of paper PMC9170038.

Tested on: MS2 coat protein
Assay: apparent KD of MS2 coat protein; higher = weaker reporter binding
Settings: Eterna round: R107
Protocol: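 RNA-MaP round R107: designed RNA switches with theophylline, tryptophan, arginine or FMN aptamers are transcribed on-chip within common flanks. They are titrated with SNAP-549-labelled MS2 coat protein in RNA-MaP buffer (100 mM Tris pH 7.5, 80 mM KCl, 4 mM MgCl2), without ligand or with the indicated ligand. Median apparent KD per design.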

[1] = input ligand: theophylline 20 uM
[2] = input ligand: theophylline 2 mM
[3] = input ligand: tryptophan 2.4 mM

| Sequence | apparent KD of MS2 coat protein (input ligand: arginine 13.2 mM) | apparent KD of MS2 coat protein [1] | apparent KD of MS2 coat protein [2] | apparent KD of MS2 coat protein [3] | apparent KD of MS2 coat protein (input ligand: none) |
| --- | --- | --- | --- | --- | --- |
| GCAUCCUAGUCGGCCGCCACUGACAUGAGGAUCACCCAUGUACAUGAGGAUCACCCAUGUUGUAACAGGACCGGGACUAGGAUGC [SS Tryp B #18] | 69.3 nM | 112 nM | 141 nM | – | – |
| AUCCUCUAGAAUGAUACCAGACCAAACAUGAGGAUCACCCAUGUAUCAGGCAAUUGUUACGUCCCUUGGCAGCAUGUAUGCCGAC [Theo B SS t3] | 17.7 nM | 31.5 nM | – | 20.2 nM | – |
| UGGGUACAUGAGGAUCACCCAUGUACUGAAGGAGCGGGACGAAUCUCAGGUAGGUCGCAGACAUGAGGAUCACCCAUGUAGUGGA [Exclusion Arginine A GF 15] | 13.9 nM | 17.8 nM | 17.2 nM | 14.6 nM | 15.9 nM |
| CUCUUCCGGAAGGAUACCAGCUACAUGAGGAUCACCCAUGUAGGAGCGGGUUUCUAAUGUAGCCCUUGGCAGCCUUAGCCCGUCG [Querarra] | 15.9 nM | 36.5 nM | – | 18 nM | – |
| GCUGGGUGCGCAAGGACCUGGCGUUGCGAUACCAGCACGGUAACGUGCCCUUGGCAGCGCACAUGAGGAUCACCCAUGUGGUGUU [#1 Exclusion - Theophylline A Attempt #19 (HarryS)] | 62.8 nM | 360 nM | – | 221 nM | – |
| CCUCAUGAACAUGAGGAUCACCCAUGUACACGAGGACCGGUACGGCCGCCACUCGAAUAACCUUAAUAUAAAUAAUAAUAAAAGG [5' end split MS2] | 14.5 nM | 21.5 nM | 19.1 nM | 45.5 nM | 16.7 nM |
| CUAGGAAACUAGUAAGGGUGGUAUUGAGAUACCAGUACAGAAAUGUACCCUUGGCAGCUCACUGCAACAUGAGGAUCACCCAUGU [Ex Theophylline A 12] | 22.5 nM | 29.3 nM | – | 27 nM | – |
| UAGUCCGCGACGGCCGCCACUCGCUGAUGCACAUGUGUCCGGGACAUGAGGAUCACCCAUGUUUCGAGGACCGGGUCGAUCCUAA [Same State Tryptophan B GF 5] | 37.5 nM | 81.5 nM | 91.6 nM | – | – |
| CCUCAAUAGACGGCCGCCACUGAAACAUGAGGAUACAUGAGGAUCACCCAUGUGGGUGUGUUACGCAGGACCGGGUCAAGACCCG [Tryp B SS t1] | 304 nM | 435 nM | 1280 nM | – | – |
| GGUCUCUGGAGCGAUACCAGCUUAAAUGUACUGGCCAGGUACAUGAGGAUCACCCAUGUAAGCCCUUGGCAGCGCUCCAGAGACC [#1 Exclusion - Theophylline B Attempt #13 (HarryS)] | 12.3 nM | 13.8 nM | 39.2 nM | 13.5 nM | 13.9 nM |
| AAUAACAUGAGGAUCACCCAUGUAAAAGAUACCAGAUGCAUGAUGAUCCCUUGGCAGCUUAAACGCGAUUGAUUACAAUCGCGAA [Mat - Same State Theophlline A - Mod of Eli - D10] | 40.9 nM | 71.9 nM | – | 21.2 nM | – |
| AUGCCUAGUGGAAGGAGCGAGGGUCCUCUCAACAUGAGGAUCACCCAUGUUCUUUUGCACCCUCAGGUAGGUCGCCAUUGGGACA [Veanaris] | 30.8 nM | 92.4 nM | 65.8 nM | 76 nM | 59.8 nM |
| GAUAUGUAUCGAAGGAGCGGCCCUUGAUCCUCAUGAGACAUGAGGAUCACCCAUGUCUCGGGCCAGGUAGGUCGCGAUAUAUAUC [Astros-omei-mod3] | 24.9 nM | 24.3 nM | 24.7 nM | 21.8 nM | 18.4 nM |
| GGUGAUCCGUAUCACCGGAUCAUCGGUGAUACCAGCAUCGAAAGAUGCCCUUGGCAGCACCAACAUGAGGAUCACCCAUGUAAUA [(M)'-(T)'-(M)''-(T1)-(T2)-(M1)-(M2)_Design6] | 70.3 nM | 67 nM | – | 98.4 nM | – |
